Source: PMC10164081
Where no end group is shown, it is not given here.

Key:
Gαolf (human) = Gαolf (human) (UniProt P38405)
[1] = molecular target: purified Ric-8B (peptide-binding thermal shift assay) (mouse) (UniProt Q80XE1); test: differential scanning fluorimetry

Chain of Gαolf (human) (P38405 whole entry): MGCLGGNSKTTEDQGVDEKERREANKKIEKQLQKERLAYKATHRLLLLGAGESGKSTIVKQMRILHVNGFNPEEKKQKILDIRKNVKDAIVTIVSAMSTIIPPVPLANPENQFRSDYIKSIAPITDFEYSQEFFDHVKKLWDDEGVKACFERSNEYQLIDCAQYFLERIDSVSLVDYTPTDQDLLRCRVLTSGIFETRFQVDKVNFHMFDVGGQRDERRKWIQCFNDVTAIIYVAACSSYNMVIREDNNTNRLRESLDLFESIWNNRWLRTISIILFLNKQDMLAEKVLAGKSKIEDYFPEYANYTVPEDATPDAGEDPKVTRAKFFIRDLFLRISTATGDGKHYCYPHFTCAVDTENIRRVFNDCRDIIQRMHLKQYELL

folding of the Gαolf-RLuc sensor (luminescence) in RIC-8B knockout HEK293T cells (Gαolf (human))	maximal thermal shift (ΔTm) [1] [°C]	Binder
20 % reduction		Ric-8B F126A (natural protein) MDEERALYIVRAGEAGAIERVLRDYSDKHRATFKFESADEDKRKKLCEGIFKVLVKEVPTTCQVSCLEVLRILSRDKKILVPVTTKENMQILLRLAKLHESDDSLEKVSEFPVIVESLKCLCNIVANSQMAQQLSLELNLAAKLCNLLRKCKDRKFINDIKCFDLRLLFVLSLLHTDIRSQLRYELQGLPLLTQILESAFSIKWTDEYESAIDHNGPPLSPQETDCAIEALKALFNVTVDSWKVHKESDSHQFRVMAAVLRHCLLIVGPTEDKTEELHSNAVNLLSNVPVSCLDVLICPLTHEETAQEAATLDELPSDKTTEKDTALKNSTMVYNGMNMEAIHVLLNFMEKRIDKGSSYREGLTPVLSLLTECSRAHRNIRKFLKDQVLPPLRDVTNRPEVGSTVRNKLVRLMTHVDLGVKQIAAEFLFVLCKERVDSLLKYTGYGNAAGLLAARGLLAGGRGDNWYSEDEDTDTEEYKNAKP
59 % decrease		Ric-8B R166A (natural protein) MDEERALYIVRAGEAGAIERVLRDYSDKHRATFKFESADEDKRKKLCEGIFKVLVKEVPTTCQVSCLEVLRILSRDKKILVPVTTKENMQILLRLAKLHESDDSLEKVSEFPVIVESLKCLCNIVFNSQMAQQLSLELNLAAKLCNLLRKCKDRKFINDIKCFDLALLFVLSLLHTDIRSQLRYELQGLPLLTQILESAFSIKWTDEYESAIDHNGPPLSPQETDCAIEALKALFNVTVDSWKVHKESDSHQFRVMAAVLRHCLLIVGPTEDKTEELHSNAVNLLSNVPVSCLDVLICPLTHEETAQEAATLDELPSDKTTEKDTALKNSTMVYNGMNMEAIHVLLNFMEKRIDKGSSYREGLTPVLSLLTECSRAHRNIRKFLKDQVLPPLRDVTNRPEVGSTVRNKLVRLMTHVDLGVKQIAAEFLFVLCKERVDSLLKYTGYGNAAGLLAARGLLAGGRGDNWYSEDEDTDTEEYKNAKP
	4.8	NDCRDIIQRMHLRQLMLQ-NH2 [Gαs/Gα13 C-term chimera amidated peptide]
